The nanobody polyreactivity screen of Harvey et al. (2022)

Test: yeast display, Sf9 membrane polyspecificity reagent, FACS + sequencing; frameworks hold sequencing errors
In short: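 In a synthetic yeast display library (Saccharomyces cerevisiae BJ5465), nanobody expression was induced with galactose for 36–48 hours. FACS gates were set low and high (top ~1%) using anti-HA fluorescence for expression and streptavidin fluorescence for binding of the Sf9 membrane reagent. Each polyreactivity label is drawn from the gate of origin.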

Sequence	polyreactivity (PSR sort gate)
QVQLVESGGGLVQAGGSLRLSCAASGLTFGDYTMGWYRQAPGKERELVAAITWSGASTYYADSVKGRFTISRDNAKNTVYLQMHSLKPEDTAVYYCAAERTPSYRAYDYWGQGTKVTVSS	low polyreactivity
QVQLVESGGGLVQAGGSLRLSCAASGLTFGDYVMGWYRPAPGKERELVATITSDGGTTYADSVKGRFTISRDNAKNTVYLQMNSLKPEDTAVYYCNADAVVDNYVGFSAAGYDYWGQGTQVTVSS	low polyreactivity
QVQLVESGGGLVQAGGSLRLSCAASGLTFGKYAMGWYRQAPGKERELVAAISRRGGSTYYADSVKGRFTISRDNANNTVYLQMNSLKPEDTAVYFCNTDTKHTGLDYWGQGTQVTVSS	high polyreactivity
QVQLVESGGGLVQAGGSLRLSCAASGLTFGNYAMGSYRQAPGKERELVAAITSGGSTYYADSVKGRFTISRDNAKNTVYLQMNSLKPEDTAVYYCAKRQSQHYRSYLMDYWGQGTQVTVSS	low polyreactivity
QVQLVESGGGLVQAGGSLRLSCAASGLTFGRYAMGWYRQAPGKERELVAAISSGGSTYYADSVKGRFTISRDNAKNTVYLQMNSLKPEDTAVYYCAADYVGWYFVSGRDYWGQGTQVTVSS	low polyreactivity
QVQLVESGGGLVQAGGSLRLSCAASGLTFGRYAMGWYRQAPGKERELVAAITWIGDGTYYGDSVKGRFTISRDNAKKTVYLQMNSLTPEDTAVYYCAAVYYTYLYGRYNYWGQGTQVTVSS	low polyreactivity
QVQLVESGGGLVQAGGSLRLSCAASGLTFGRYAMGWYRQAPGKERELVAVINGSGGNTYYADSVKGRFTISRDNAKNTVYLQMNSLKPEDTAVYYCAARRTVQYTLYYYPDYNYWGQGTQVTVSS	low polyreactivity
QVQLVESGGGLVQAGGSLRLSCAASGLTFGSNGMGWYRQAPGKERELVAAISRGGSTSYADSVKGRFTISRDNAKNTVYLQMNSLKPEDTAVYYCAARSYRYSYRYRAFDYWGQGTQVTVSS	high polyreactivity
QVQLVESGGGLVQAGGSLRLSCAASGLTFGTNAMGWSRQAPGKERELVAAISTSSGSTYYSDSVKGRFTISRDNAKNTDYLQMNSLKPEDTAVYYSAAVTVTNLSYYRYYYWGQGTQVTVSS	low polyreactivity
QVQLVESGGGLVQAGGSLRLSCAASGLTFGTYAMGWYRPAPGKERELVAAIRSGGSTNYADSVKGRFTISRDNAKNTVYLQMNSLKPEDTAVYYCAKRYYWDRYYYWGQGTQVTVSS	high polyreactivity
QVQLVESGGGLVQAGGSLRLSCAASGLTFGVNAMGWYRQAPGKERELVAVITSGGNTYYADSVKGRFTISRDNAKNTVYLQMNSLKPEDTAVYYCAAYGRASWERDYWGQGTQVTVSS	low polyreactivity
QVQLVESGGGLVQAGGSLRLSCAASGLTFHAYAMGWYRQPPGKEREFVAAITRSGSSTSYADSVKGRFTISRDNAKNTVYLQMNSLKPEDTAVYYCAAQGSRKYRNDYWGQGTQVTVSS	high polyreactivity
QVQLVESGGGLVQAGGSLRLSCAASGLTFHSNDMGRYRQAPWKETEFVAAITSGGNTYYADSVKGRFTISRDNAKNTVYLPMNSLKPEDTAVYYCNADYQDEEDDYWGQGTQVTVSS	low polyreactivity
QVQLVESGGGLVQAGGSLRLSCAASGLTFIVYAMGWYRPAPGKERELVADITWSGGSTYYADSLKGRFTISRDNAKNTVYLQMNSLKPEATAVYYCNRQSAKIMDYWGQGTQVTVSS	low polyreactivity
QVQLVESGGGLVQAGGSLRLSCAASGLTFIYNAMGWYRQAPGKERELVAAISGNGGDTYYADSVKGRFTISRDNAKNTVYIQMNSLKPEDTAVYYCAADYAYTPITWDEYWGQGTQVTVSS	low polyreactivity
QVQLVESGGGLVQAGGSLRLSCAASGLTFKENVMGWYRQAPGKERELVAAISTGASTYYADSVKGRCTISRDNAKNTVYLQMNSLKPEDTAVYYGAKRVTRWYGYWGQGTQVTVSS	high polyreactivity
QVQLVESGGGLVQAGGSLRLSCAASGLTFKINAMGWYRQAPGKERELVAAIRSSGGRTYADSVKGRFTISRDNAKNTVYLQMNSLKPEDTAVYYCNKSPGYRSGRAVLYDYWGQGTQVTVSS	low polyreactivity
QVQLVESGGGLVQAGGSLRLSCAASGLTFKLYVMGWYRQAPGKERELVAAISGGGSTYYADSVKGRFTISRDNAKNTVYLQMNSLKPEDTAVYYCAAVRYFEYEYWGQGTQVTVSS	low polyreactivity
QVQLVESGGGLVQAGGSLRLSCAASGLTFKRYAMGWYRQAPGKERELVAGINYSSGSTYYADSVKARFTISRDNAKNTVYLQMNSLKPEDTAVYYCAADGGISAGANSGYDYWGQGTQVTVSS	high polyreactivity
QVQLVESGGGLVQAGGSLRLSCAASGLTFKRYAMGWYRQAPGKERELVASITGNGGSTYYADSVKGRFTISRDNAKNTVYLQMNSLIPEDTAVYYCNSRRYVRTSQQPLYDYWGQVTQVTVSS	high polyreactivity
QVQLVESGGGLVQAGGSLRLSCAASGLTFKSYAMGWYRQAPGKERELVAAISWRGGRTYYADSVKGRFTISRDNAKNTVYLQMNSLKPEDTAVYYCNARSQQWWLSRYNYWGQGTQVTVSS	high polyreactivity
QVQLVESGGGLVQAGGSLRLSCAASGLTFKYYAMGWYRQAPGKERELVAAITYSVGTTYYADSVKGRFTISRDNAKNTVYLQMNSLKPEDTAVYYCAADFAPVGLPSPYAVSEGEDDYWGQGTQVTVSS	low polyreactivity

Sequence	polyreactivity (PSR sort gate)
QVQLVESGGGLVQAGGSLRLSCAASGLTFLFYAMGWYRHATGKERELVASIRWSDGRTYYADSVKGRFTISRDNAKNTVYLQMNSLKPEDTAVYYCAVVPAYVYLNREYYWGQGTQVTVSS	high polyreactivity
QVQLVESGGGLVQAGGSLRLSCAASGLTFLNNAMGWYRQAHGKERELVAAISDGGSTNYADSVKGRFTISRDNAKNTVYLQMNSLKPEDTAVYYCGADYTSASYGSWGQGTQVTVSS	low polyreactivity
QVQLVESGGGLVQAGGSLRLSCAASGLTFLRYAMGWYRQAPGKERELVATISASDGDTYYADSVKGRFTISGDNAKNTVYLQMNSLKPEDTAVYYCAADDIYKYYQYYAFPYYRYDDWGQGTEVTVSS	low polyreactivity
QVQLVESGGGLVQAGGSLRLSCAASGLTFLVNAMGWYRQAPGKEREFVSVITTDGGGTYYADSVKGRFTISRDNAKNTVYLQMNSLKPEDTAVYYCAAESKYRTAATSYRLDYDYWGQGTQVTVSS	low polyreactivity
QVQLVESGGGLVQAGGSLRLSCAASGLTFLVYAMGWYRQAPGKERELVAAITSIGDSTFYADSVKGRFTISRDNAKNTVYLQMNSLKPEDTAVYYCNADGPAGDNKFTLLDYDYWGQGTQVTVSS	low polyreactivity
QVQLVESGGGLVQAGGSLRLSCAASGLTFLWYAMGWYRQAPGKERELVAAITSGGRTKYADSVKGRFTISRDNAKNTVYLQMNSLKPEDTAVYYCAAYTQWWVYDYWGQGTQVTVSS	high polyreactivity
QVQLVESGGGLVQAGGSLRLSCAASGLTFNFNAMGWYRQAPGKERELVAAISYRAGSTYYADSVKGRFTISRDNAKNSVYLQMNSLKPEDTAVYYCAADGYYYLKSGTYVSDYWGQGTQVTVSS	low polyreactivity
QVQLVESGGGLVQAGGSLRLSCAASGLTFNKNAMGWYRQAPGKESEFVAAITRRGGSTYYADSVKGRFTISRDNAKNTVFLQMNSLKPEDTAVYYCAVYPASVNPYHYDYWGQGTQVTVSS	high polyreactivity
QVQLVESGGGLVQAGGSLRLSCAASGLTFNVYAMGWYRPAPGKERELVASITKRGGSTYYADSVKGRFTISRDNAKNTVYLQMNSLKPEDTAVYYCAADGLTGSKYRATGYYWGQGTQVTVSS	high polyreactivity
QVQLVESGGGLVQAGGSLRLSCAASGLTFPFYVMGWYRQAPGKERELVAAISASGASTYYADSVKGRFTISRDNAKNTVYLQMNSLKPEDTAVYYCAALGYGFSYRYDYWGQGTQVTVSS	high polyreactivity
QVQLVESGGGLVQAGGSLRLSCAASGLTFPGYAMGWYRQAPVKERELVAAISYSSGSTYYADSVKGRFTISRDNAKNTVYLQMNILKQEDTEVYYCNRVYRFRGITELDYWGQGTQVTVSS	high polyreactivity
QVQLVESGGGLVQAGGSLRLSCAASGLTFPQYAMGWYIQAPGKERELVAAISKTGGSTYYADSVKGRFTISRDNAKNTVYLLMNSLKPEDTAVYYCAAGSSVTPYRYYYWGQGTQVTVSS	high polyreactivity
QVQLVESGGGLVQAGGSLRLSCAASGLTFPVYAMGWYRQAPGKERELVAAISKSGGNTYYADSVKGRFTISRDNAKNTVYLQMNSLKPEDTAVYYCAAGYLSGNYARYGYWGQGTQVTVSS	high polyreactivity
QVQLVESGGGLVQAGGSLRLSCAASGLTFPYYAMGWYRQAPGKERELVATISWSSISTYYADSVKGRFTISRDNAKNTVYLQMNSLKPEDTAVYYCNARYSLRRGYDYWGQGTQVTVSS	low polyreactivity
QVQLVESGGGLVQAGGSLRLSCAASGLTFPYYAMGWYRQAPGTERELVAVITTSTGTTYYADSVKGRFTMSRDNAKNTVYLQMNSLKPEDTAVYYCATDTGAYWFSLYDYWGQGTQVTVSS	low polyreactivity
QVQLVESGGGLVQAGGSLRLSCAASGLTFQNNAMGRSRQAPGKERELVAVITRIGGSTYYADSVKGRFTISRDNAKNTVYLQLNSLKPEDTAVYYCAVRRRYTPGYDYWGQGTQVTVSS	high polyreactivity
QVQLVESGGGLVQAGGSLRLSCAASGLTFQNNARGWYRQAPGKERELVAAISDGGSTYYADSVKGRFTISRDNAKNTVYLQMNSLKPEDTGVYYCNADYGGWDYLYTSDQDNEYGYWGQGTQVTVSS	low polyreactivity
QVQLVESGGGLVQAGGSLRLSCAASGLTFQSYAMGWYRQAPGKEREFAYYADSVKGRFTMSRDNAKNTVYLQMNSLKPEDTAVYYCNGADDEGDRPITQVGYDYWGQGTQVTVSS	low polyreactivity
QVQLVESGGGLVQAGGSLRLSCAASGLTFQYNAMGWYRQAPGKERELVAAISWSGGSTYYADSVKGRFTISRDNAKNTVYLQMNSLNPEDTAVYYCAAVYLHKSYARRMDYWGQGTQVTVSS	low polyreactivity
QVQLVESGGGLVQAGGSLRLSCAASGLTFRAYVMGWYRQAPGKERELVAAISVSGGSTYYADSVKGRFTISRDNAKNTVYLQMNSLKPEDTAVYYCAAAAKSWLFDYWGQGTQVTVSS	high polyreactivity
QVQLVESGGGLVQAGGSLRLSCAASGLTFRINAMGWYRQAPGKERELVAAITDSGTSTSYADSVKGRFTISRDNAKNTVYLQMKSLKPEDTAVYYCAADVRPGYYLYRSWGAYDYWGQGTQVTVSS	low polyreactivity
